In experiment [1] the target is T1, mouse cell surface latent TGF-beta 1 expressed on Ba/F3 cells (mouse, UniProt P04202 30-390).
T1 construct: whole, on cells; also called mouse latent TGF-beta 1
As to the kind of experiment: flow cytometry (FACS) on BaF3 cells, PE anti-human IgG secondary. On the technique in general: Flow cytometry measures light scatter and fluorescence of single cells or particles in a stream.
Experimental: (§1) The anti-latent TGF-beta 1 antibodies (10 microgram/mL each) were incubated with each cell line for 30 minutes at 4 degree C. and washed with FACS buffer (2% PBS, 2 mM EDTA in PBS). […] Data acquisition was performed on an FACS Verse (Becton Dickinson), followed by analysis and calculation of Mean Fluorescence Intensity (MFI), using FlowJo (trademark) software (Tree Star) and GraphPad Prism software (GraphPad).

Experiment [2] has as its target T2, human cell surface latent TGF-beta 1 expressed on FreeStyle 293-F cells (human, UniProt P01137 30-390).
T2 construct: whole, on cells; also called human latent TGF-beta 1
As to the kind of experiment: flow cytometry (FACS) on FreeStyle 293-F cells, PE anti-human IgG secondary.
Experimental: as §1

Experiment [3] has as its target T3, FLAG-tagged human latent TGF-beta 1 (human, UniProt P01137 34-390).
T3 construct: Co-expressed with human furin, purified on anti-FLAG resin and by gel filtration; also called human latent TGF-beta 1 (SLC); hSLC
As to the kind of experiment: SPR (BIACORE 8K), antibody captured on anti-human Fc, antigen as analyte, pH 7.4. (In general: SPR reads the build-up and loss of mass on a sensor chip optically.)
Experimental: (§2) A mouse anti-human Fc (GE Healthcare) was immobilized onto all flow cells of a CM5 sensor chip using amine coupling kit (GE Healthcare). Antibodies were captured onto the anti-human Fc sensor surfaces to around 20RU capture level, then recombinant latent TGF-beta 1 of human, cyno, and mouse was injected over the flow cell. All antibodies and analytes were prepared in ACES pH 7.4 containing 20 mM ACES, 150 mM NaCl, 0.05% Tween 20, 0.005% NaN₃. Sensor surface was regenerated each cycle with 3M MgCl₂.

Experiment [4] deals with T4, FLAG-tagged mouse latent TGF-beta 1 (mouse, UniProt P04202 34-390).
T4 construct: Co-expressed with human furin; also called mouse latent TGF-beta 1 (SLC); mSLC
Described as above.
Experimental: as §2

Experiment [5] addresses T3, FLAG-tagged human latent TGF-beta 1. As to the kind of experiment: SPR (BIACORE 8K), antibody captured on anti-human Fc, antigen as analyte, pH 5.8.
In experiment [6] the target is T4, FLAG-tagged mouse latent TGF-beta 1. Described as above.
Experiment [7] concerns the target T3, FLAG-tagged human latent TGF-beta 1. As to the kind of experiment: SPR (BIACORE), antibody captured on anti-human Fc, antigen as analyte, pH 7.4.
Experiment [8] deals with T4, FLAG-tagged mouse latent TGF-beta 1. The description is as above.
For experiment [9], the target named is T5, Cyno latent TGF-beta 1 (Cys at the 30th position substituted with Ser (C33S mutation)).
T5 construct: The first reading lists it only inside the group m5; also called FLAG-tagged cynomolgus monkey latent TGF-beta 1; monkey latent TGF-beta 1 (SLC)
As to the kind of experiment: SPR (BIACORE 8K), ratio calculated from FIGS. 5 and 6.

Experiment [10] concerns the target T3, FLAG-tagged human latent TGF-beta 1. Described as above.
In experiment [11] the target is T4, FLAG-tagged mouse latent TGF-beta 1. The experiment is described as above.
The target of experiment [12] is T5, Cyno latent TGF-beta 1. Briefly: SPR (BIACORE 8K), antibody captured on anti-human Fc, antigen as analyte, pH 7.4.
Experimental: as §2
Experiment [13] has as its target T5, Cyno latent TGF-beta 1. Briefly: SPR (BIACORE 8K), antibody captured on anti-human Fc, antigen as analyte, pH 5.8.

Substitutions are numbered along the chain they refer to.

Here are results for 13 molecules from US20240376190A1 (Chugai, published 2024).

One may read the Kd as the equilibrium constant for the complex coming apart. Usually koff stands for the first-order rate constant of dissociation. Low values mean slow dissociation, high ones fast dissociation. The kon is the second-order rate constant of association. Low values mean slow association, high ones fast association.

T5 sequence (latent TGF-beta 1 (LAP and mature TGF-beta 1), as listed by the source): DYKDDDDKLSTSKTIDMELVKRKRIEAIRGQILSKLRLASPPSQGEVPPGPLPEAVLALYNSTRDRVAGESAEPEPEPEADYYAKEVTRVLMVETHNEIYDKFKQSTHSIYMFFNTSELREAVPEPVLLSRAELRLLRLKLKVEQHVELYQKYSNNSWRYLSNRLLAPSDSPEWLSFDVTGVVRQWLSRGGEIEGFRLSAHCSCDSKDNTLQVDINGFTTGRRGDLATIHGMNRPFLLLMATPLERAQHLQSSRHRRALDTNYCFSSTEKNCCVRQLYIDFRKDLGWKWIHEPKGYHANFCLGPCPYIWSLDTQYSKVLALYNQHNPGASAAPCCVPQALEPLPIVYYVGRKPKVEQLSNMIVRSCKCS

B1: Anti-KLH antibody IC17dK-SG181 (antibody, human IgG1, kappa, V domains shown)
VH: QVQLQQSGPQLVRPGASVKISCKASGYSFTSYWMHWVNQRPGQGLEWIGMIDPSYSETRLNQKFKDKATLTVDKSSSTAYMQLSSPTSEDSAVYYCALYGNYFDYWGQGTTLTVSS
VL: DIQMTQSSSSFSVSLGDRVTITCKASEDIYNRLAWYQQKPGNAPRLLISGATSLETGVPSRFSGSGSGKDYTLSITSLQTEDVATYYCQQYWSTPYTFGGGTKLEVKR
notes: Anti-KLH antibody with a human IgG1 Fc region, used as negative control; also called negative control antibody
Regarding B1, the binding result in [1] and in experiment [2] was “no binding (tested: 10 microgram/mL)” in each case.

B2: hT0947AE34-SG191 (antibody, human IgG1, V domains shown)
VH: QVQLVESGGGVVQPGRSLRLSCAASGFHFSSEAMNWIRQPPGKGLEWIGYIYTSGTTYRANWARGRFTISRDNSKNTLYLQMNSLRAEDTAVYYCARGWHIFDHHYWVMHAWGQGTLVTVSS
VL: DIQMTQSPSSLSASVGDRVTITCQASQSISTYLAWYQQKPGQPPKLLIYAASTLEYGVPSRFSGSGSGTDFTLTISSLQPEDFATYYCQSYSDGDSVIFGQGTKVEIKR
notes: Human IgG1, SG191; also called hT0497AE34-SG191
With B2, the Kd in experiment [3] worked out at 2.29 nM; in experiment [4] it was 3.67 nM; in [5] it was 309 nM; in experiment [6], 346 nM.

B3: hT0947AE23-SG181 (antibody, human IgG1, kappa, V domains shown)
VH: B2 VH with S31R, W99T, I101L, D103G, A111S
VL: B2 VL with I98V
notes: Human IgG1; Heavy chain = VH + CH, light chain = VL + CL
For B3, in [7], binding was characterised by a dissociation constant (Kd) of 3.25 nM, the dissociation rate constant (koff) amounted to 0.00108 s⁻¹ and the kon is 333000 M⁻¹ s⁻¹. Moreover, in [8], binding was characterised by a dissociation constant (Kd) of 4.19 nM, the koff turned out to be 0.00187 s⁻¹ and the kon was found to be 445000 M⁻¹ s⁻¹.

B4: hT0947AE26-SG181 (antibody, human IgG1, kappa, V domains shown)
VH: B2 VH with S31N, A60S, D103G, H105Q, A111F
VL: B2 VL with L33E, Y56S, I98K
notes: as for B3
In experiment [7], B4 had a Kd of 3.33 nM, a koff of 0.0012 s⁻¹ and a kon of 361000 M⁻¹ s⁻¹. In experiment [8], this molecule gave a Kd of 5.34 nM, a koff of 0.00864 s⁻¹ and a kon of 1.62e+06 M⁻¹ s⁻¹.

B5: hT0947AE25-SG181 (antibody, human IgG1, kappa, V domains shown)
VH: B2 VH with S31N, A60S, D103G, H105Q, A111F
VL: B2 VL with L33E, Y56S, I98G
notes: as for B3
In experiment [7], B5 gave an equilibrium dissociation constant (Kd) of 3.88 nM, an off-rate (koff) of 0.00152 s⁻¹ and a kon of 391000 M⁻¹ s⁻¹. In experiment [8], this molecule registered a Kd of 4.48 nM, a koff of 0.0353 s⁻¹ and a kon of 7.89e+06 M⁻¹ s⁻¹.

B6: hT0947AE27-SG191 (antibody, human IgG1, V domains shown)
VH: B2 VH with S31N, S54T, D103G, A111F
VL: B2 VL with S28R, L33V, Y56S
notes: Human IgG1, SG191; also called hT0497AE27-SG191
In the case of B6, the Kd in experiment [3] was found to be 3.93 nM; in [4] it was 5.43 nM; in experiment [5], 482 nM; in [6], 803 nM.

B7: hT0947AE20-SG191 (antibody, human IgG1)
heavy: QVQLVESGGGVVQPGRSLRLSCAASGFLFSREAMNWIRQPPGKGLEWIGYIYTSGTTYRANWARGRFTISRDNSKNTLYLQMNSLRAEDTAVYYCARGWHIFGHQYWVMHFWGQGTLVTVSSASTKGPSVFPLAPSSKSTSGGTAALGCLVKDYFPEPVTVSWNSGALTSGVHTFPAVLQSSGLYSLSSVVTVPSSSLGTQTYICNVNHKPSNTKVDKRVEPKSCDKTHTCPPCPAPELRRGPSVFLFPPKPKDTLMISRTPEVTCVVVDVSHEDPEVKFNWYVDGVEVHNAKTKPREEQYNSTYRVVSVLTVLHQDWLNGKEYKCKVSNKALPAPIEKTISKAKGQPREPQVYTLPPSREEMTKNQVSLTCLVKGFYPSDIAVEWESNGQPENNYKTTPPVLDSDGSFFLYSKLTVDKSRWQQGNVFSCSVLHEALHAHYTRKELSLSP
light: DIQMTQSPSSLSASVGDRVTITCQASQSISTYEAWYQQKPGQPPKLLIYAASTLESGVPSRFSGSGSGTDFTLTISSLQPEDFATYYCQSYSDGDSVIFGQGTKVEIKRTVAAPSVFIFPPSDEQLKSGTASVVCLLNNFYPREAKVQWKVDNALQSGNSQESVTEQDSKDSTYSLSSTLTLSKADYEKHKVYACEVTHQGLSSPVTKSFNRGEC
notes: Human IgG1, SG191; also called hT0497AE20-SG191
On to B7, for which the “KD ratio pH5.8/pH7.4” value in the experiment with Cyno latent TGF-beta 1 [9] was 113; in experiment [10] it was 103; in experiment [11], 131. In addition, the “koff ratio pH5.8/pH7.4” value with Cyno latent TGF-beta 1 [9] was 55.3; in experiment [10] it was 51.7; in experiment [11], 44.2. Further, the Kd came to 3.78 nM with Cyno latent TGF-beta 1 [12]; 3.84 nM in experiment [3]; 5.12 nM in experiment [4]; 427 nM with Cyno latent TGF-beta 1 [13]; 395 nM in [5]; 669 nM in experiment [6]. The off-rate (koff) with Cyno latent TGF-beta 1 [12] turned out to be 0.001 s⁻¹; in [3], 0.00104 s⁻¹; in [4] it was 0.00242 s⁻¹; in the experiment with Cyno latent TGF-beta 1 [13], 0.0553 s⁻¹; in experiment [5] it was 0.0538 s⁻¹; in [6], 0.107 s⁻¹. Moreover, the kon is 266000 M⁻¹ s⁻¹ with Cyno latent TGF-beta 1 [12]; 271000 M⁻¹ s⁻¹ in [3]; 472000 M⁻¹ s⁻¹ in experiment [4]; 129000 M⁻¹ s⁻¹ with Cyno latent TGF-beta 1 [13]; 136000 M⁻¹ s⁻¹ in [5]; 160000 M⁻¹ s⁻¹ in experiment [6].

B8: hT0947AE37-SG191 (antibody, human IgG1, V domains shown)
VH: B2 VH with T53V, N61D, D103G
VL: B2 VL with Q27E, Y56S
notes: Human IgG1, SG191; also called hT0497AE37-SG191
For the molecule B8, the dissociation constant (Kd) in [3] came out at 1.32 nM; in experiment [4] it was 3.61 nM; in [5] it was 222 nM; in [6], 1570 nM.

B9: hT0947AE20-SG181 (antibody, human IgG1, kappa)
heavy: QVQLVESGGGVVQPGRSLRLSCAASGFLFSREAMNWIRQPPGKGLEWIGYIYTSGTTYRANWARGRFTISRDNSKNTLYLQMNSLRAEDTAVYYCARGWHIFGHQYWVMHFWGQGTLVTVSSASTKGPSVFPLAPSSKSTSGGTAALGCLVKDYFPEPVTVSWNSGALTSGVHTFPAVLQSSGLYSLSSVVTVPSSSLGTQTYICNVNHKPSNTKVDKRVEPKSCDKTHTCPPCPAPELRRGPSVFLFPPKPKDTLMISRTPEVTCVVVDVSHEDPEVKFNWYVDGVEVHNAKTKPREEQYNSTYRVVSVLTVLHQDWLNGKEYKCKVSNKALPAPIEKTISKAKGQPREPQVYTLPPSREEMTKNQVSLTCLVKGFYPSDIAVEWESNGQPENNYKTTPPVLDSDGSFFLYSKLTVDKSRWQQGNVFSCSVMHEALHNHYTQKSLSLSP
light: B7 light
notes: Human IgG1
For B9, in [7], binding was characterised by a dissociation constant (Kd) of 2.95 nM, the koff was 0.00111 s⁻¹ and the kon amounted to 377000 M⁻¹ s⁻¹. Further, in experiment [8], the Kd stood at 4.39 nM, the koff turned out to be 0.00294 s⁻¹ and the kon is 670000 M⁻¹ s⁻¹.

B10: hT0947AE07-SG181 (antibody, human IgG1, kappa)
heavy: not shown
light: B7 light with E33L, I98G
notes: Human IgG1; Heavy chain = VH + CH, light chain = VL + CL; also called non-pH dependent anti-human latent TGF-beta 1 antibody
On to B10, for which the Kd is 1.02 nM in experiment [7] and 1.04 nM in experiment [8].

B11: hT0947AE24-SG181 (antibody, human IgG1, kappa, V domains shown)
VH: B2 VH with D103G, A111F
VL: B2 VL with Y56W, I98G
notes: as for B3
Take B11: in [7], the Kd is 2.55 nM, the dissociation rate constant (koff) was found to be 0.001 s⁻¹ and the kon was 393000 M⁻¹ s⁻¹. In experiment [8], this molecule registered a Kd of 7.03 nM, a koff of 0.00441 s⁻¹ and a kon of 627000 M⁻¹ s⁻¹.

B12: hT0947AE22-SG181 (antibody, human IgG1, kappa, V domains shown)
VH: B2 VH with S31R, D103G, A111F
VL: B2 VL with Y56S
notes: as for B3
In experiment [7], B12 yielded a Kd of 3.6 nM, a koff of 0.00124 s⁻¹ and an on-rate (kon) of 344000 M⁻¹ s⁻¹. In experiment [8], this molecule displayed a Kd of 5.76 nM, a koff of 0.00376 s⁻¹ and a kon of 653000 M⁻¹ s⁻¹.

B13: T0947H0053H0156-SG181/T0947L001L0049-SK1 (antibody, human IgG1, kappa, V domains shown)
VH: B2 VH with H28T, W99T, F102Y, H105Y, M109H, A111L
VL: B2 VL with Y56S, I98G
notes: Human IgG1; also called the pH dependent antibody; parent pH-dependent anti human latent TGF-beta 1 antibody
In experiment [8], B13 displayed a Kd of 16.6 nM.
